From the supplement of paper PMC12764529
± gives the half width of the 95% confidence interval.

How the values were obtained:
[1] = folding stability dG unfold from trypsin proteolysis; higher = more stable
Method in brief: (§1)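 Designed mini-proteins with no cysteine and under 80 residues were kept only if AlphaFold2 dimer inter-PAE was above 15. In a PA-tagged cDNA display construct, they were digested with trypsin and chymotrypsin and then sequenced. K50 was inferred by Bayesian fitting of counts, and unfolding free energy was derived per protease or combined against a sequence-predicted unfolded-state K50 and a shared folded-state K50.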

[2] = folding stability dG unfold (combined trypsin and chymotrypsin); higher = more stable
Method in brief: as §1

[3] = folding stability dG unfold from chymotrypsin proteolysis; higher = more stable
Method in brief: as §1

Sequence	folding stability dG unfold [1]	folding stability dG unfold [2]	folding stability dG unfold [3]
SAGGSAGGSAGGTAEIYFPNFPIRIDSVQLSPEKNHVQVSMENPDGPPVKGTMPPKDGILSAGGSAGGSAGG [r7_427_TrROS]	1.58 ± 0.031 kcal/mol	0.903 ± 0.042 kcal/mol	-0.127 ± 0.027 kcal/mol
SPRIKIDIPFFNANGHPQEVEIEYSPTDGMLMIKFPRNGYYIMIQIKRIEWEDGKLEIELDIFIMPPGDFSA [r9_587_TrROS]	3.01 ± 0.18 kcal/mol	4.17 ± 0.43 kcal/mol	4.55 ± 0.22 kcal/mol
SMLVLRLPDNRLAVLEYDPETKRLRVLVVDPESGRLTVAEIHPETGEITVDEYTLLPNGEPLPHRFELPLSA [r9_1073_TrMRF]	2.84 ± 0.099 kcal/mol	2.73 ± 0.058 kcal/mol	2.54 ± 0.048 kcal/mol
SAGGSETVEIELGSEDGTVYKIEIERFPETGLLLIKVDGPDPKVIEKVVKELGVDVVEVLEDGYVLLASAGG [r13_937_TrMRF]	1.45 ± 0.059 kcal/mol	1.78 ± 0.065 kcal/mol	1.89 ± 0.05 kcal/mol
SAGGSLPPSTVIESEIVIEIEIENNISGIPGKTEKAFIIIKVTVTTDENGNLSSSVEIEIIPAKDLSAGGSA [r2_448_TrMRF]	3.22 ± 0.23 kcal/mol	3.26 ± 0.41 kcal/mol	2.97 ± 0.21 kcal/mol
SAGGSAGGSAGMTVEEFTIPEVGGRVIRTTVEEPTEDGVVVRRRYLILVNPDGTVERRPESAGGSAGGSAGG [r11_911_JUSTAS]	-0.0463 ± 0.17 kcal/mol	0.111 ± 0.092 kcal/mol	0.13 ± 0.17 kcal/mol
SKTVVVEINGYLIVVEEKKLENGETYYTVKIVNKKTKKVIEVKAKSKEEAEKAVLEALRKLFPDEELKKLSA [r9_749_TrROS_Hall]	3.05 ± 0.15 kcal/mol	2.51 ± 0.35 kcal/mol	2.45 ± 0.075 kcal/mol
SAGGSEVVLEAEGVDPATGKPYTVRVVYDKETGVPVVEVRDADGTLLAVIPVPPDKALEALKELGVSAGGSA [r2_115_TrMRF]	2.92 ± 0.08 kcal/mol	2.99 ± 0.067 kcal/mol	3.046 ± 0.013 kcal/mol
SAGGSAGGSAGEPVEVTPLSTETVPDSDTTVTYYKVTYPGGKEAIRTVYSDGTETTTPLPSAGGSAGGSAGG [r11_637_JUSTAS]	0.915 ± 0.12 kcal/mol	0.969 ± 0.17 kcal/mol	1.02 ± 0.1 kcal/mol
SAGGSGEVRPLELEFTLPNGAKIKITLHVYPDGTVKVEARIEFGGEYLELRFEFEGEKVPLDFPDFGSAGGS [r16_523_TrMRF]	3.58 ± 0.13 kcal/mol	3.73 ± 0.2 kcal/mol	3.73 ± 0.11 kcal/mol
SAGGSGMIKTETTVTITFPGGETVSFPATVTYDPETGKTEVEVNLPEAALAELKERAPDAEVNVLLSAGGSA [r2_409_JUSTAS]	1.76 ± 0.032 kcal/mol	1.29 ± 0.046 kcal/mol	0.681 ± 0.014 kcal/mol
SAGGSAGGSAGGMTITVVTEESPGPFKTVTVTTTTPLPNGTLATTTTTTFLPVSPDEPVSAGGSAGGSAGGS [r10_241_JUSTAS]	1.52 ± 0.044 kcal/mol	0.983 ± 0.08 kcal/mol	0.208 ± 0.27 kcal/mol
SAGGSAGGSAKPVLEVEITVEVNGKLYKVRARVELEETPDGLVLKVEVELENGEKFEFTLKLSAGGSAGGSA [r18_54_TrROS_Hall]	4.42 ± 0.26 kcal/mol	5.11 ± 0.28 kcal/mol	5.13 ± 0.21 kcal/mol
SAGGMVFTITVRNPDGTVVELPFDVSDVTITPKNGDLYITVAGGKVLTLKTDEVLDIDPAAIAAANAASAGG [r13_925_JUSTAS]	0.901 ± 0.052 kcal/mol	1.13 ± 0.16 kcal/mol	1.26 ± 0.14 kcal/mol
DDNQEYEYENPGGMKMRVEYNPSTGNMKVEMEPVPPVPPIPPIMIPLDLTPEQANRLINELQDLGIPIMVGS [r1_242_TrROS]	0.906 ± 0.06 kcal/mol	1.16 ± 0.16 kcal/mol	1.33 ± 0.086 kcal/mol
QRVLPFKNPDGDYWVMIMNPNGDPLVEHRIPNDPEQMEKAIHKLMEQLPNFDPEDLRIAVMNPKNGESQEIS [r1_55_TrROS]	0.222 ± 0.16 kcal/mol	0.61 ± 0.13 kcal/mol	0.868 ± 0.12 kcal/mol
SAGGSAGGMKEVIEAALKDGSKEFYAPGFSPDKVYDVKITVYPGEGKVEIEVEGKRFTVSPEDLSAGGSAGG [r6_749_TrMRF]	1.48 ± 0.14 kcal/mol	1.11 ± 0.23 kcal/mol	0.765 ± 0.18 kcal/mol
SAGGKKKLTLEIKIKVPKEEEEKAKEKAKKLAEELAKKLKEAGYKVKVTVEIDEETGEITVKVEVELPSAGG [r13_755_TrROS_Hall]	2.84 ± 0.34 kcal/mol	3.43 ± 0.49 kcal/mol	3.54 ± 0.55 kcal/mol
SAGGSAGGMVIPFILPGSEFEEEEAIERLLELIETARELNPDTPIIANPLILEVPPPPTETELGSAGGSAGG [r6_728_TrMRF]	1.36 ± 0.099 kcal/mol	1.22 ± 0.28 kcal/mol	0.538 ± 0.13 kcal/mol
SAGGSAGGSAGFFRVDIDIMMSPEMLDLMKKNPGLPPGQEIPIMVVIKREPVPYDPNGKLSAGGSAGGSAGG [r17_194_TrROS]	1.375 ± 0.013 kcal/mol	1.8 ± 0.051 kcal/mol	2.1 ± 0.043 kcal/mol
SKIRIIRPERSLEIDLPKSARIEFDPETRRIYFINPDGERLEFPLGPNAVIIPGDDEITIIDPPASPENPSA [r9_653_TrMRF]	2.21 ± 0.038 kcal/mol	3.19 ± 0.079 kcal/mol	3.68 ± 0.042 kcal/mol
